Article PMC8455029

Tests used:
[1] = biological target: AtFN3K C32A/C236A/C196A (Arabidopsis thaliana); experiment: SEC
[2] = biological target: AtFN3K C32A/C236A/C196A (Arabidopsis thaliana); experiment: AUC

stoichiometry N [1]: 2
stoichiometry N [2]: 2
Substance: AtFN3K C32A/C236A/C196A (enzyme)
